Results reported in publication PMC2757176 (The Journal of biological chemistry, 2009).
Non-standard residues stand in square brackets, D forms with d. No end group written: not given here. *: point of attachment. Biotin = O=C1N[C@H]2[C@H](CS[C@H]2CCCCC(=O)*)N1; pY = N[C@@H](Cc1ccc(OP(=O)(O)O)cc1)C(=O)O

T1: PLC-γ1 SH2 N+C (aa 545 to 749) (human, UniProt P19174 545-749)
T1 sequence (looked up): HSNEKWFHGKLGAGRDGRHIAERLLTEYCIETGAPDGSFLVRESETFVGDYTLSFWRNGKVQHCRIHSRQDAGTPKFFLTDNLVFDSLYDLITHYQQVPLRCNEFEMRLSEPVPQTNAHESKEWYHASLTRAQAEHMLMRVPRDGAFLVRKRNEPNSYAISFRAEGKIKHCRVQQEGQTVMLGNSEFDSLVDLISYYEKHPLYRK

B1: CD244 ITSM 1 peptide, biotinylated, phosphorylated (peptide)
peptide: Biotin-EFLTI[pY]EDVKD
B2: CD2-281-305 peptide, biotinylated (peptide)
peptide: Biotin-HPPPPPGHRSQAPSHRPPPPGHRVQ
B3: CD2-322 peptide, biotinylated (peptide)
peptide: Biotin-QKGPPLPRPRVQPKPPHG
B4: FYN-SH3-SH2 (aa 82 to 248) (domain or fragment)
chain: not shown
B5: LCK-SH3-SH2 (aa 58 to 230) (domain or fragment, human, UniProt P06239 58-230, looked up)
chain: ASPLQDNLVIALHSYEPSHDGDLGFEKGEQLRILEQSGEWWKAQSLTTGQEGFIPFNFVAKANSLEPEPWFFKNLSRKDAERQLLAPGNTHGSFLIRESESTAGSFSLSVRDFDQNQGEVVKHYKIRNLDNGGFYISPRITFPGLHELVRHYTNASDGLCTRLSRPCQTQKPQ
B6: EAT-2 127 peptide, biotinylated, phosphorylated (peptide)
peptide: Biotin-NSNSD[pY]VDVLP
B7: LAT 132 peptide, biotinylated, phosphorylated (peptide)
peptide: Biotin-HNPG[pY]LVVLP

Columns and labels:
Experiment in all cases: SPR
[1] = molecular target: B5
[2] = molecular target: B4
[3] = molecular target: B6
[4] = molecular target: T1, PLC-γ1 SH2 N+C (aa 545 to 749)

Binder	Kd [1]	Kd [2]	other results
B1	~2 µM	~0.2 µM	
B2	> 1000 µM	~4 µM	
B3	> 1000 µM	~4 µM	
B4			fold weaker than FYN binding to the CD244 ITSM [3]: ~5 fold
B5			fold weaker than FYN binding to human EAT-2 [3]: 10 fold
B6			Kd [4]: ~0.04 µM
B7			Kd [4]: ~0.02 µM
